Reference: US20160272937A1, “METHODS OF GENERATING INTERMEDIATE MESODERM CELLS FROM HUMAN PLURIPOTENT STEM CELLS” (THE BRIGHAM AND WOMEN'S HOSPITAL, INC., priority 2013, published 2016)

What was measured:
[1] = test system: CHIR-induced hPSCs; experiment: Growth factor screen for PAX2 induction in CHIR-induced mesendodermal cells (immunostaining); format: cell-based, human; details: day 4
Protocol: For immunofluorescence studies, cultures are washed once with PBS (Invitrogen) and fixed in 4% paraformaldehyde for 15 min at room temperature (RT). Fixed cells are then washed three times in PBS and incubated in blocking buffer (0.3% Triton X-100 (Fisher Scientific) and 5% normal donkey serum (EMD Millipore) in PBS) for 1 hour at RT.
The cells are then incubated with primary antibody overnight at 4° C. or for 2 hours at RT in antibody dilution buffer (0.3% Triton X-100 and 1% BSA (Roche) in PBS). Cells are then washed three times in PBS and incubated with Alexa Fluor 488-, 555-, or 647-conjugated secondary antibodies (1:500) (Molecular Probes) in antibody dilution buffer for 1 hour at RT. For immunostaining with Biotinylated Lotus Tetragonolobus Lectin (LTL, Vector Labs), a Streptavidin/Biotin Blocking Kit (Vector Labs) and Alexa Fluor 488- or 647-conjugated Streptavidin (Molecular Probes) were used according to manufacturer's instructions.
Nuclei can be counterstained with DAPI (Sigma). […] Immunofluorescence is visualized using an inverted fluorescence microscope (Nikon Eclipse Ti, Tokyo, Japan). Quantification is performed by counting a minimum of five random fields at 10× magnification.
PAX2 is selected since it is an early marker of IM, and, unlike the markers OSR1 or LHX1 which are also expressed in the adjacent lateral plate mesoderm, PAX2 expression is restricted in mesoderm to the IM.

[2] = test system: hPSCs (hESC and hiPSC lines); experiment: Intermediate mesoderm differentiation: PAX2/LHX1 immunostaining; format: cell-based, human; details: BMP-7 added to FGF2 and RA after CHIR 36 hours, day 3
Protocol: Mesendoderm differentiation—the media is changed to Advanced RPMI (A-RPMI, Invitrogen) supplemented with 1×L-glutamax and 1× penicillin/streptomycin and either CHIR99021 (CHIR, Stemgent), human Wnt3a (R&D systems), and/or human activin A (R&D systems) at the doses described. Definitive endoderm differentiation—cells are treated with A-RPMI+1×L-glu+1×P/S+5 μM CHIR for 24 hours, then A-RPMI+1×Lglu+1×P/S+100 ng/mL of activin A for 2-3 days. Hepatic differentiation—cells at the definitive endoderm stage are treated with A-RPMI+1×L-glu+1×P/S+1×B27 supplement (Invitrogen)+20 ng/mL BMP-4 (R&D systems)+10 ng/mL FGF2 (Invitrogen) for 5 days, then A-RPMI+1×L-glu+1×P/S+1×B27+10 ng/mL HGF for 5 days, then HCM Hepatocyte Culture Medium (Lonza) supplemented with 20 ng/mL Oncostatin M and 10 ng/mL HGF (Peprotech) for 5 days. Pancreatic differentiation—cells at the definitive endoderm stage are treated with DMEM/F12+2% FBS (Hyclone)+50 ng/mL FGF7 (R&D systems) for 2 days, then high-glucose DMEM (Mediatech)+1% B27+2 μM retinoic acid (Sigma)+0.25 μM KAAD cyclopamine (EMD Millipore)+100 ng/mL recombinant human Noggin (R&D systems) for 4 days, then high-glucose DMEM+1% B27+100 ng/mL Noggin+300 nM indolactam V (Stemgent)+1 μM ALK5 inhibitor II (Axxora) for 4 days. Anterior foregut endoderm differentiation—cells at the definitive endoderm stage are treated with DMEM/F12+1×L-glu+1×B27+200 ng/mL Noggin+10 μM SB431542 (Stemgent) for 3 days. For hindgut endoderm differentiation, cells at the definitive endoderm stage were treated with A-RPMI+1×L-glu+1×P/S+2% FBS+500 ng/mL FGF4 (R&D systems)+5 μM CHIR for 4 days. […]
Nuclei can be counterstained with DAPI (Sigma). […] Immunofluorescence is visualized using an inverted fluorescence microscope (Nikon Eclipse Ti, Tokyo, Japan). Quantification is performed by counting a minimum of five random fields at 10× magnification. […]

[3] = test system: human pluripotent stem cells (hPSCs); experiment: Mesendoderm induction: BRACHYURY immunofluorescence in hPSCs; format: cell-based; details: WNT3A alone 500 ng/mL, 24 hours of treatment
Protocol: For differentiation experiments, hESCs or hiPSCs can be grown on Geltrex, washed once with PBS and dissociated into single cells with Accutase ([…] Technologies). Cells are plated at a density of 4×10^4 cells/cm^2 onto Geltrex-coated plates in mTeSR1 medium supplemented with the ROCK inhibitor Y27632 10 μM (Stemgent). Cells are fed daily with mTeSR1 without Y27632 for 2-3 days until they reached 50% confluency. Mesendoderm differentiation-the media is changed to Advanced RPMI (A-RPMI, Invitrogen) supplemented with 1×L-glutamax and 1× penicillin/streptomycin and either CHIR99021 (CHIR, Stemgent), human Wnt3a (R&D systems), and/or human activin A (R&D systems) at the doses described. Definitive endoderm differentiation-cells are treated with […] for 24 hours, then […]+100 ng/mL of activin A for 2-3 days. Hepatic differentiation-cells at the definitive endoderm stage are treated with […]27 supplement (Invitrogen)+20 ng/mL BMP-4 (R&D systems)+10 ng/mL FGF2 (Invitrogen) for 5 days, then […]27+10 ng/mL HGF for 5 days, then HCM Hepatocyte Culture Medium (Lonza) supplemented with 20 ng/mL Oncostatin M and 10 ng/mL HGF (Peprotech) for 5 days. Pancreatic differentiation-cells at the definitive endoderm stage are treated with DMEM/F12+2% FBS (Hyclone)+50 ng/mL FGF7 (R&D systems) for 2 days, then high-glucose DMEM (Mediatech)+1% B27+2 μM retinoic acid (Sigma)+0.25 μM KAAD cyclopamine (EMD Millipore)+100 ng/mL recombinant human Noggin (R&D systems) for 4 days, then high-glucose DMEM+1% B27+100 ng/mL Noggin+300 nM indolactam V (Stemgent)+1 μM ALK5 inhibitor II (Axxora) for 4 days. Anterior foregut endoderm differentiation-cells at the definitive endoderm stage are treated with DMEM/F12+1×L-glu+1×B27+200 ng/mL Noggin+10 μM SB431542 (Stemgent) for 3 days. […] Immunofluorescence is visualized using an inverted fluorescence microscope (Nikon Eclipse Ti, Tokyo, Japan). Quantification is performed by counting a minimum of five random fields at 10× magnification. […]

FGF2: fibroblast growth factor-2
cells positive for PAX2 by immunostaining ([1]; CHIR 24 hours then FGF2 100 ng/mL): 50-60% | PAX2 expression ([1]; FGF2 added to hPSCs not initially induced with CHIR): absence of PAX2 expression

B1: BMP-4: candidate growth factor screened for PAX2 induction (protein, UniProt P12644 293-408, looked up)
Bone morphogenetic protein 4: SPKHHSQRARKKNKNCRRHSLYVDFSDVGWNDWIVAPPGYQAFYCHGDCPFPLADHLNSTNHAIVQTLVNSVNSSIPKACCVPTELSAISMLYLDEYDKVVLKNYQEMVVEGCGCR
PAX2 expression ([1]; CHIR 24 hours then increasing doses of factor): no PAX2 expression

B2: BMP-7: candidate growth factor screened for PAX2 induction (protein, UniProt P18075 293-431, looked up)
Bone morphogenetic protein 7: STGSKQRSQNRSKTPKNQEALRMANVAENSSSDQRQACKKHELYVSFRDLGWQDWIIAPEGYAAYYCEGECAFPLNSYMNATNHAIVQTLVHFINPETVPKPCCAPTQLNAISVLYFDDSSNVILKKYRNMVVRACGCH
PAX2 expression compared to vehicle control ([1]; CHIR 24 hours then low doses of factor): modest increases | expression of LHX1 [2]: minimal effect | percentage of cells expressing PAX2 [2]: significantly decreased

B3: WNT3A: wingless-type MMTV integration site family, member 3A; human Wnt3a (R&D systems) (protein, UniProt P56704 19-352, looked up)
Protein Wnt-3a: SYPIWWSLAVGPQYSSLGSQPILCASIPGLVPKQLRFCRNYVEIMPSVAEGIKIGIQECQHQFRGRRWNCTTVHDSLAIFGPVLDKATRESAFVHAIASAGVAFAVTRSCAEGTAAICGCSSRHQGSPGKGWKWGGCSEDIEFGGMVSREFADARENRPDARSAMNRHNNEAGRQAIASHMHLKCKCHGLSGSCEVKTCWWSQPDFRAIGDFLKDKYDSASEMVVEKHRESRGWVETLRPRYTYFKVPTERDLVYYEASPNFCEPNPETGSFGTRDRTCNVSSHGIDGCDLLCCGRGHNARAERRREKCRCVFHWCCYVSCQECTRVYDVHTCK
cells expressing BRACHY [3]: 26.7±1.9%
